The values that follow come from the supplement of paper PMC5998384.

Series [1] deals with HeLa Kyoto. Briefly: thermal stability score vs G1/S (z-score of summed log2 fold changes over temperatures); higher = more thermally stable than in G1/S.
The subject of series [2] is HeLa Kyoto. Put plainly: melting temperature (median over replicates), in situ; higher = more thermally stable.
Series [3] concerns HeLa Kyoto. Put plainly: solubility change mitosis vs G1/S (difference of NP-40 vs SDS log2 ratios) (log2 ratio difference); higher = more soluble in mitosis.
Series [4] concerns HeLa Kyoto. Put plainly: solubility in G1/S (NP-40 vs SDS abundance) (log2 ratio); higher = more soluble. As to conditions: cell cycle stage: G1/S.
[5] abbreviates: cell cycle stage: early G1 (4.5 h after nocodazole release).
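Throughout, for melting temperature (median over replicates), in situ: HeLa Kyoto cells synchronized by double thymidine or nocodazole block, proteins quantified by TMT10plex mass spectrometry, three independent biological replicates.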
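Throughout, for solubility change mitosis vs G1/S (difference of NP-40 vs SDS log2 ratios): synchronized HeLa Kyoto cells (double thymidine block for G1/S, nocodazole release for mitosis), protein amounts in NP-40 versus SDS lysates quantified by mass spectrometry, three biological replicates.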
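Throughout, for solubility in G1/S (NP-40 vs SDS abundance): HeLa Kyoto cells arrested at G1/S by double thymidine block, proteins quantified by TMT10plex mass spectrometry in mild NP-40 versus SDS extracts, three biological replicates.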
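Throughout, for thermal stability score vs G1/S (z-score of summed log2 fold changes over temperatures): synchronized HeLa Kyoto cells, proteins quantified by TMT10plex mass spectrometry, three biological replicates, mitosis taken 0.5 h after nocodazole release, G1/S directly after double thymidine block.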

As for “MAAMAVALRGLGGRFRWRTQAVAGGVRGAARGAAAGQRDYDLLVVGGGSGGLACAKEAAQLGRKVAVVDYVEPSPQGTRWGLGGTCVNVGCIPKKLMHQAALLGGLIQDAPNYGWEVAQPVPHDWRKMAEAVQNHVKSLNWGHRVQLQDRKVKYFNIKASFVDEHTVCGVAKGGKEILLSADHIIIATGGRPRYPTHIEGALEYGITSDDIFWLKESPGKTLVVGASYVALECAGFLTGIGLDTTIMMRSIPLRGFDQQMSSMVIEHMASHGTRFLRGCAPSRVRRLPDGQLQVTWEDSTTGKEDTGTFDTVLWAIGRVPDTRSLNLEKAGVDTSPDTQKILVDSREATSVPHIYAIGDVVEGRPELTPIAIMAGRLLVQRLFGGSSDLMDYDNVPTTVFTPLEYGCVGLSEEEAVARHGQEHVEVYHAHYKPLEFTVAGRDASQCYVKMVCLREPPQLVLGLHFLGPNAGEVTQGFALGIKCGASYAQVMRTVGIHPTCSEEVVKLRISKRSGLDPTVTGCUG [TXNRD2]”, the thermal stability score was 2.59 in the series with HeLa Kyoto [1] (setting [5]) and -1.79 with HeLa Kyoto [1] (cell cycle stage: mitosis). Besides, the melting temperature in the series on HeLa Kyoto [2] (cell cycle stage: G1/S) came out at 53.6 °C; in the series on HeLa Kyoto [2] (cell cycle stage: mitosis) it was 53 °C. The “solubility change mitosis (log2)” value with HeLa Kyoto [3] was -0.16. Also, the “solubility in G1/S (log2)” value in the series with HeLa Kyoto [4] was 0.0295.

Regarding “MAQCVQSVQELIPDSFVPCVAALCSDEAERLTRLNHLSFAELLKPFSRLTSEVHMRDPNNQLHVIKNLKIAVSNIVTQPPQPGAIRKLLNDVVSGSQPAEGLVANVITAGDYDLNISATTPWFESYRETFLQSMPALDHEFLNHYLACMLVASSSEAEPVEQFSKLSQEQHRIQHNSDYSYPKWFIPNTLKYYVLLHDVSAGDEQRAESIYEEMKQKYGTQGCYLLKINSRTSNRASDEQIPDPWSQYLQKNSIQNQESYEDGPCTITSNKNSDNNLLSLDGLDNEVKDGLPNNFRAHPLQLEQSSDPSNSIDGPDHLRSASSLHETKKGNTGIIHGACLTLTDHDRIRQFIQEFTFRGLLPHIEKTIRQLNDQLISRKGLSRSLFSATKKWFSGSKVPEKSINDLKNTSGLLYPPEAPELQIRKMADLCFLVQHYDLAYSCYHTAKKDFLNDQAMLYAAGALEMAAVSAFLQPGAPRPYPAHYMDTAIQTYRDICKNMVLAERCVLLSAELLKSQSKYSEAAALLIRLTSEDSDLRSALLLEQAAHCFINMKSPMVRKYAFHMILAGHRFSKAGQKKHALRCYCQAMQVYKGKGWSLAEDHINFTIGRQSYTLRQLDNAVSAFRHILINESKQSAAQQGAFLREYLYVYKNVSQLSPDGPLPQLPLPYINSSATRVFFGHDRRPADGEKQAATHVSLDQEYDSESSQQWRELEEQVVSVVNKGVIPSNFHPTQYCLNSYSDNSRFPLAVVEEPITVEVAFRNPLKVLLLLTDLSLLWKFHPKDFSGKDNEEVKQLVTSEPEMIGAEVISEFLINGEESKVARLKLFPHHIGELHILGVVYNLGTIQGSMTVDGIGALPGCHTGKYSLSMSVRGKQDLEIQGPRLNNTKEEKTSVKYGPDRRLDPIITEEMPLLEVFFIHFPTGLLCGEIRKAYVEFVNVSKCPLTGLKVVSKRPEFFTFGGNTAVLTPLSPSASENCSAYKTVVTDATSVCTALISSASSVDFGIGTGSQPEVIPVPLPDTVLLPGASVQLPMWLRGPDEEGVHEINFLFYYESVKKQPKIRHRILRHTAIICTSRSLNVRATVCRSNSLENEEGRGGNMLVFVDVENTNTSEAGVKEFHIVQVSSSSKHWKLQKSVNLSENKDTKLASREKGKFCFKAIRCEKEEAATQSSEKYTFADIIFGNEQIISSASPCADFFYRSLSSELKKPQAHLPVHTEKQSTEDAVRLIQKCSEVDLNIVILWKAYVVEDSKQLILEGQHHVILRTIGKEAFSYPQKQEPPEMELLKFFRPENITVSSRPSVEQLSSLIKTSLHYPESFNHPFHQKSLCLVPVTLLLSNCSKADVDVIVDLRHKTTSPEALEIHGSFTWLGQTQYKLQLKSQEIHSLQLKACFVHTGVYNLGTPRVFAKLSDQVTVFETSQQNSMPALIIISNV [TRAPPC8]”, the thermal stability score with HeLa Kyoto [1] (setting [5]) is -0.214; with HeLa Kyoto [1] (cell cycle stage: mitosis), -0.392. Besides, the melting temperature worked out at 51.5 °C in the series on HeLa Kyoto [2] (cell cycle stage: G1/S) and 49.9 °C with HeLa Kyoto [2] (cell cycle stage: mitosis). Further, the “solubility change mitosis (log2)” value in the series on HeLa Kyoto [3] is -0.114. For the same sequence, in the series on HeLa Kyoto [4], the “solubility in G1/S (log2)” value is -0.261.

On to “MAVAAAAAAAGPAGAGGGRAQRSGLLEVLVRDRWHKVLVNLSEDALVLSSEEGAAAYNGIGTATNGSFCRGAGAGHPGAGGAQPPDSPAGVRTAFTDLPEQVPESISNQKRGVKVLKQELGGLGISIKGGKENKMPILISKIFKGLAADQTQALYVGDAILSVNGADLRDATHDEAVQALKRAGKEVLLEVKYMREATPYVKKGSPVSEIGWETPPPESPRLGGSTSDPPSSQSFSFHRDRKSIPLKMCYVTRSMALADPENRQLEIHSPDAKHTVILRSKDSATAQAWFSAIHSNVNDLLTRVIAEVREQLGKTGIAGSREIRHLGWLAEKVPGESKKQWKPALVVLTEKDLLIYDSMPRRKEAWFSPVHTYPLLATRLVHSGPGKGSPQAGVDLSFATRTGTRQGIETHLFRAETSRDLSHWTRSIVQGCHNSAELIAEISTACTYKNQECRLTIHYENGFSITTEPQEGAFPKTIIQSPYEKLKMSSDDGIRMLYLDFGGKDGEIQLDLHSCPKPIVFIIHSFLSAKITRLGLVA [SNTB1]”, for which the results for the thermal stability score with HeLa Kyoto [1] (setting [5]) and with HeLa Kyoto [1] (cell cycle stage: mitosis) were 0.836 and 0.333, respectively. Further, the results for the melting temperature in the series on HeLa Kyoto [2] (cell cycle stage: G1/S) and in the series with HeLa Kyoto [2] (cell cycle stage: mitosis) were 49.9 °C and 50.2 °C, respectively. For the same sequence, the “solubility change mitosis (log2)” value with HeLa Kyoto [3] came to 0.0627. Moreover, the “solubility in G1/S (log2)” value in the series with HeLa Kyoto [4] was found to be 0.0289.

Turning to “MARELRALLLWGRRLRPLLRAPALAAVPGGKPILCPRRTTAQLGPRRNPAWSLQAGRLFSTQTAEDKEEPLHSIISSTESVQGSTSKHEFQAETKKLLDIVARSLYSEKEVFIRELISNASDALEKLRHKLVSDGQALPEMEIHLQTNAEKGTITIQDTGIGMTQEELVSNLGTIARSGSKAFLDALQNQAEASSKIIGQFGVGFYSAFMVADRVEVYSRSAAPGSLGYQWLSDGSGVFEIAEASGVRTGTKIIIHLKSDCKEFSSEARVRDVVTKYSNFVSFPLYLNGRRMNTLQAIWMMDPKDVREWQHEEFYRYVAQAHDKPRYTLHYKTDAPLNIRSIFYVPDMKPSMFDVSRELGSSVALYSRKVLIQTKATDILPKWLRFIRGVVDSEDIPLNLSRELLQESALIRKLRDVLQQRLIKFFIDQSKKDAEKYAKFFEDYGLFMREGIVTATEQEVKEDIAKLLRYESSALPSGQLTSLSEYASRMRAGTRNIYYLCAPNRHLAEHSPYYEAMKKKDTEVLFCFEQFDELTLLHLREFDKKKLISVETDIVVDHYKEEKFEDRSPAAECLSEKETEELMAWMRNVLGSRVTNVKVTLRLDTHPAMVTVLEMGAARHFLRMQQLAKTQEERAQLLQPTLEINPRHALIKKLNQLRASEPGLAQLLVDQIYENAMIAAGLVDDPRAMVGRLNELLVKALERH [TRAP1]”, the thermal stability score is 1.66 in the series with HeLa Kyoto [1] (setting [5]) and -0.668 in the series with HeLa Kyoto [1] (cell cycle stage: mitosis). The melting temperature in the series on HeLa Kyoto [2] (cell cycle stage: G1/S) is 52.8 °C; with HeLa Kyoto [2] (cell cycle stage: mitosis), 52.7 °C. Besides, in the series on HeLa Kyoto [3], the “solubility change mitosis (log2)” value was -0.149. Further, the “solubility in G1/S (log2)” value in the series with HeLa Kyoto [4] was -0.0668.
